The results in this text go back to the RNAGym collection of RNA variant scans (doi:10.7554/elife.80360).

The chains are these.
B1: HDV Ribozyme (parent)
chain: GGCCGGCAUGGUCCCAGCCUCCUCGCUGGCGCCGGCUGGGCAACAUUCCGAGGGGACCGUCCCCUCGGUAAUGGCGAAUGGGACCCA

The variants in this series derive from B1. Put plainly: self-cleavage, relative activity (ratio to wild type); higher = more cleavage; co-transcriptional.
Regarding A43U G68C, the self-cleavage was 0.198.

In the case of A8G, the self-cleavage is 1.02. To C13G G68A belongs 0; to C18A C48A, 0.0369.

On to G17A C24A, for which the self-cleavage was determined as 0.089. Next, C61U A78C: 0.182; C58A A71U: 1.05. Next, G50A G54A: 0.726. Next, G34C A43U: 0; C49U A77G: 0.95; C49U U79C: 0.47. In the case of G34C C36U, the self-cleavage came to 0.0332. Next, C3G C48U: 0.736; U37G G80U: 0.203; C44A G50U: 0.594. Next, A77C U79C: 0.138; U47C G55C: 0.862; C41A A78C: 0.185. To U20G G73C belongs 0; to U60G C62A, 0.886; to G39U U47G, 0.323. For C58A G76U, the self-cleavage was determined as 1.05. To C13U C26U belongs 1.07; to C21A G82A, 0.0594; to C41G A78G, 0.208. With U37A G52A, the self-cleavage worked out at 0.145.

As for G6A A83U, the self-cleavage was 0.324.

For C58G C86U, the self-cleavage was 1.25.

G50C G73C: the self-cleavage worked out at 0.601. To G6C C62G belongs 0.151.

Take C7A C57U: the self-cleavage came to 0.702.

For the variant G28U U72A, the self-cleavage is 0. To G17C G82A belongs 0.147. Next, G68U A77U: 0.578; C36U C41U: 0.602. In the case of G67C A70U, the self-cleavage is 0.851.

Turning to A8G C24U, the self-cleavage turned out to be 0.665. To G25C C32G belongs 0.104; to G25C G31C, 0.0978; to C15U G76A, 0.997. Regarding U23C C44U, the self-cleavage came out at 0.554. Next, C24A G38A: 0.208. To C26U C58A belongs 1.03; to C19G C58U, 0.0272. Turning to C14A C15G, the self-cleavage came out at 0.138. To G28A A71C belongs 0.162; to U72A G73U, 0.612; to U72A G73A, 0.617. To G38C U47G belongs 0.225; to G55C G74C, 0.297.

Regarding G28C A87C, the self-cleavage was 0.0987. To G54C C61U belongs 1.01; to G5A A16U, 0.356; to A45G C48U, 0.978. On to C61A A83U, for which the self-cleavage came out at 0.47. As for G59C A87C, the self-cleavage came out at 1.08. To C64A G68U belongs 0.272. Next, A70C G82C: 0; A70G C84A: 0.853; C30G C33A: 0.0519. Next, C85U A87G: 0.963; C14G G17C: 0.0615.

Consider A16G C66A, for which the self-cleavage amounted to 0.88. Regarding C22A C85A, the self-cleavage is 0.378.

Consider U46A C61G, for which the self-cleavage came out at 0.808. Next, C36A G52A: 0.158; C30A G54A: 0.535. Next, G54U A71U: 0.987.

As for A70G A77C, the self-cleavage is 0.178. To C32U G59A belongs 0.963; to G38A C62A, 0.0733. Next, C14A G81A: 0.911; C18A U79C: 0.117.

In the case of G39A G81U, the self-cleavage came to 0.147.

Take C14U A87G: the self-cleavage was 1.07.

For C36A U37A, the self-cleavage came to 0.0831. To G28U A83U belongs 0.0415; to G5C G40C, 0.256. Next, G31U C86A: 0.394. To A16C belongs 0.838. Take U47A G74A: the self-cleavage turned out to be 0.688. To U79A G82A belongs 0.227; to A42C A78C, 0.169; to G53U A87G, 1.03. To G53U C75G belongs 0.214. Next, G10A A16G: 0.584. For the variant A70C A83G, the self-cleavage was 0.543. Regarding C22U U65A, the self-cleavage amounted to 0.831.

As to U20C C63U, the self-cleavage was 0.0898. To A70C belongs 0.894. Next, G11C G55C: 0.228; G2C G55A: 0.0941. Next, A16G C18A: 0.161. U37A A70U: the self-cleavage turned out to be 0.196. To C33A G59U belongs 0.338.

As for G38U G39A, the self-cleavage amounted to 0.0415.

Take G54U A78G: the self-cleavage was found to be 0.534. As for G50A U79C, the self-cleavage is 0.486.

With G10U U47C, the self-cleavage was found to be 0.499. Next, G25A C49U: 0.318; G39C U46A: 0.19. To U47G C63A belongs 1.06; to A42U A70G, 0.571. Next, G11U G59U: 0.41; G53C: 0.97; C3A C14A: 0.313. On to C61A A87U, for which the self-cleavage turned out to be 0.978. Next, U20A C44A: 0.0573; G2U C44G: 0; G28U C84U: 0.0489.

As to C21G C85G, the self-cleavage worked out at 0.219. To G54A G74A belongs 0.445. Next, A8U A77C: 0.0665. In the case of C64U G74A, the self-cleavage came to 0.535. Next, C30U U69A: 0.594; U46A: 0.794.

G55A A77G: the self-cleavage amounted to 0.991. To U9A C22A belongs 0.388; to C57U U65C, 0.895; to C4A G76C, 0.253. To G2A G73C belongs 0.0608. Next, U60G C66U: 1.08; U23A C86G: 0.85. For C4A U12A, the self-cleavage turned out to be 0.0712. To G31A G50U belongs 0.442. Take G29C A83C: the self-cleavage came out at 0.142. To G6A G25A belongs 0.121. To C7G C30G belongs 0.119; to U20A G68U, 0; to C22A C26G, 0.119.

Consider U37A C58U, for which the self-cleavage was 0.405. Next, G34A C84G: 0.104; G2A G35A: 0.0569; U23G C57A: 0.656. To C3U C48G belongs 0.641. To A16U G54C belongs 0.955; to C26A C57A, 1.02; to C66A A71G, 0.782. A16U C21A: the self-cleavage was determined as 0.185.

For the variant C14U U20G, the self-cleavage came to 0.145. To C26A A77C belongs 0.266; to C36U G67C, 0.831; to U27A G52C, 0.914.

Consider U20G G82U, for which the self-cleavage is 0.104. Next, G1U A77C: 0.494.

As for A16C C62U, the self-cleavage is 0.804. To A83G C86A belongs 0.941. To C48U A78U belongs 0.298; to C36A A45C, 0; to C3A C85G, 0.623. For the variant U69A A87G, the self-cleavage stood at 0.99.

Regarding A8U C26U, the self-cleavage stood at 0.86. For U12A A87U, the self-cleavage was 0.262. Next, G76A C85G: 0.962. Next, A56U C85A: 0.966; G1C A70C: 0.185; U60G C85G: 1.09.

As for C49A C84U, the self-cleavage came out at 0.686. Consider G52C G81C, for which the self-cleavage was found to be 0.242. Regarding G39U G50A, the self-cleavage is 0.681. To G10C A77C belongs 0.208.

G54A C61G: the self-cleavage is 0.881. To C15A A87U belongs 0.746; to G2C G5C, 0.237; to C26A A87G, 0.864. Turning to C44A C63U, the self-cleavage is 0.973. To G31A C86G belongs 0.573.
